Source: patent publication US20220324960A1 (KINDRED BIOSCIENCES, published 2022)
Positions count from the first letter of the chain named. Blank lines part the entries; values can stand above or below the binder they belong to.

Biological target: T1, Canine IL31 (canine)
T1 chain: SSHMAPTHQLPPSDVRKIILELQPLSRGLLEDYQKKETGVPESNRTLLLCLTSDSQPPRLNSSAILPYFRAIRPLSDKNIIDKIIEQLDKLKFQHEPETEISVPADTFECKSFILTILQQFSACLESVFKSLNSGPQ
Assay: SPR, BIAcore 8K, Protein A sensor chip
Protocol: Chimeric antibodies composed of different combinations of cmVH1, cmVH2, or cmVH3 fused to human IgG1 heavy chain and cmVL1, cmVL2, and cmVL3 fused to human kappa constant light chain were generated. Caninized VH of M14 (SEQ ID NO: 3) fused to human IgG1 heavy chain and caninized VL of M14 (SEQ ID NO: 4) fused to human kappa constant light chain was also generated. Affinity of canine IL31 to the different chimeric antibodies was measured using a BIAcore 8K, as described in Table 3 below: […]

B1: Caninized VH-VL M14 chimeric antibody (caninized VH of M14 fused to human IgG1 heavy chain and caninized VL of M14 fused to human kappa constant light chain) (antibody, V domains shown)
VH: EVQLVESGPSLVKPGGSLRLTCSVTGDSITSGYWNWIRKFPGNKLEYMGYISYSGITDYNPSLKSRITISRDTSKNQYYLQLNSVTTEDTATYYCARYGNYGYAMDYWGQGTSVTVSS
VL: DIVMTQSPASLSVSLGQRATISCRASESVDTYGNSFMHWYQQKPGQSPKLLIYRASNLESGIPARFGGSGSGTDFTLTIDPVQADDVATYYCQQSYEDPWTFGGGTKLEIK
notes: Chimeric: VH fused to human IgG1 heavy chain, VL fused to human kappa constant light chain; also called analyte 1; caninized VH-VL M14 antibody control
Kd: 2.18 nM
koff: 0.000523 s⁻¹
kon: 240000 M⁻¹ s⁻¹

B6: cmVH1 + cmVL1 chimeric antibody (antibody, human IgG1, V domains shown)
VH: B1 VH with N35K
VL: B1 VL with N34R
notes: also called analyte 2
Kd: 0.8 nM
koff: 0.000182 s⁻¹
kon: 228000 M⁻¹ s⁻¹

Further binders by falling Kd, results first:

Kd: 0.914 nM
koff: 0.000159 s⁻¹
kon: 174000 M⁻¹ s⁻¹
B3: cmVH2 + cmVL2 chimeric antibody (antibody, human IgG1, V domains shown)
VH: B1 VH with N35K, G99P
VL: B1 VL with N34R, Q93Y
notes: also called analyte 3

Kd: 0.9 nM
koff: 0.000168 s⁻¹
kon: 187000 M⁻¹ s⁻¹
B4: cmVH3 + cmVL2 chimeric antibody (antibody, human IgG1, V domains shown)
VH: B1 VH with N35K, G99A
VL: B1 VL with N34R, Q93Y
notes: also called analyte 5

Kd: 0.868 nM
koff: 0.000162 s⁻¹
kon: 186000 M⁻¹ s⁻¹
B5: cmVH2 + cmVL3 chimeric antibody (antibody, human IgG1, V domains shown)
VH: B1 VH with N35K, G99P
VL: B1 VL with N34R, Q93H
notes: also called analyte 4

Kd: 0.858 nM
koff: 0.000185 s⁻¹
kon: 216000 M⁻¹ s⁻¹
B2: cmVH3 + cmVL3 chimeric antibody (antibody, human IgG1, V domains shown)
VH: B1 VH with N35K, G99A
VL: B1 VL with N34R, Q93H
notes: also called analyte 6
